± gives the uncertainty stated by the source.
Assay: self-splicing fitness, log relative to wild type (ln ratio); higher = more splicing; Tetrahymena group I intron in knt gene, E. coli kanamycin selection, DiMSum; sequences stand for … in CUCUCU…GGAGGGAAAAGUUAUCAGGCAUGCACCUGGUAGCUAGUCUUUAAACCAAUAGAUUGCAUCGGUUUAAAAGGCAAGACCGUCAAAUUGCGGGAAAGGGGUCAACAGCCGUUCAGUACCAAGUCUCAGGGGAAACUUUGAGAUGGCCUUGCAAAGGGUAUGGUAAUAAGCUGACGGACAUGGUCCUAACCACGCAGCCAAGUCCUAAGUCAACAGAUCUUCUGUUGAUAUGGAUGCAGUUCACAGACUAAAUGUCGGUCGGGGAAGAUGUAUUCUUCUCAUAAGAUAUAGUCGGACCUCUCCUUAAUGGGAGCUAGCGGAUGAAGUGAUGCAACACUGGAGCCGCUGGGAACUAAUUUGUAUGCGAAAGUAUAUUGAUUAGUUUUGGAGUACUCGUGGUCG
In short: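 Library with all eight P1ex-region intron nucleotides randomised, intron inside the knt kanamycin-resistance gene on pET-22b(+), in E. coli BL21(DE3). Cells grew overnight at 37°C or 30°C on LB agar with or without 25 μg/mL kanamycin (plus 100 μg/mL carbenicillin, 50 μM IPTG, 0.2% rhamnose), in six replicate transformations. Pooled colonies were amplicon-sequenced on Illumina HiSeq 2500. DiMSum fitness is the error-weighted combination of wild-type-normalised replicate fold changes, kanamycin versus none.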

| Sequence | self-splicing fitness (ln) (30 °C) | self-splicing fitness (ln) (37 °C) |
| --- | --- | --- |
| ACCUAGCAAUAUUACGGGAC | -1.87 ± 0.17 | -1.36 ± 0.18 |
| ACCUAGCAAUAUUACGGUGG | -4 ± 0.16 | -3.02 ± 0.15 |
| ACCUAGCAAUAUUACGUAAU | -1.28 ± 0.049 | -0.573 ± 0.066 |
| ACCUAGCAAUAUUACGUAUG | -2.71 ± 0.097 | -1.61 ± 0.099 |
| ACCUAGCAAUAUUACGUAUU | -1.84 ± 0.075 | -1.71 ± 0.11 |
| ACCUAGCAAUAUUACGUCAU | -2.11 ± 0.12 | -1.63 ± 0.12 |
| ACCUAGCAAUAUUACGUCUU | -0.806 ± 0.064 | -0.667 ± 0.075 |
| ACCUAGCAAUAUUACGUGUA | -2.84 ± 0.099 | -1.45 ± 0.075 |
| ACCUAGCAAUAUUACGUUCU | -1.08 ± 0.1 | -0.757 ± 0.1 |
| ACGAAGCAAUAUUACGACCU | 0.0549 ± 0.12 | 0.126 ± 0.13 |
| ACGAAGCAAUAUUACGACUU | -0.832 ± 0.058 | 0.00574 ± 0.081 |
| ACGAAGCAAUAUUACGAGAC | -2.39 ± 0.38 |  |
| ACGAAGCAAUAUUACGAUAU | -3.39 ± 0.14 | -2.03 ± 0.14 |
| ACGAAGCAAUAUUACGAUUU | -1.28 ± 0.094 | -0.317 ± 0.1 |
| ACGAAGCAAUAUUACGCCAG | -2.08 ± 0.19 | -1.72 ± 0.3 |
| ACGAAGCAAUAUUACGCCGU | -3.86 ± 0.37 | -1.57 ± 0.23 |
| ACGAAGCAAUAUUACGCCUU | -2.57 ± 0.14 | -0.89 ± 0.13 |
| ACGAAGCAAUAUUACGCGGA | -1.96 ± 0.17 | -1.33 ± 0.13 |
| ACGAAGCAAUAUUACGCGUG | -1.13 ± 0.051 | -0.442 ± 0.074 |
| ACGAAGCAAUAUUACGCUCA | -0.808 ± 0.11 | 0.223 ± 0.17 |
| ACGAAGCAAUAUUACGCUCG | -1.53 ± 0.14 | -1.17 ± 0.17 |
| ACGAAGCAAUAUUACGCUGU | -2.16 ± 0.13 | -0.576 ± 0.11 |
| ACGAAGCAAUAUUACGGCAG | -2.17 ± 0.13 | -1.58 ± 0.14 |
| ACGAAGCAAUAUUACGGCGA | -0.157 ± 0.087 | 0.0766 ± 0.12 |

| Sequence | self-splicing fitness (ln) (30 °C) | self-splicing fitness (ln) (37 °C) |
| --- | --- | --- |
| ACGAAGCAAUAUUACGGCGU | -2.47 ± 0.09 | -1.74 ± 0.11 |
| ACGAAGCAAUAUUACGGGAA | -3.09 ± 0.19 | -1.31 ± 0.13 |
| ACGAAGCAAUAUUACGUACU | -0.484 ± 0.064 | -0.0153 ± 0.089 |
| ACGAAGCAAUAUUACGUCCA | -0.408 ± 0.12 | -0.457 ± 0.13 |
| ACGAAGCAAUAUUACGUUGC | -3.45 ± 0.17 | -1.8 ± 0.16 |
| ACGCAGCAAUAUUACGAACC | -1.99 ± 0.16 | -0.986 ± 0.26 |
| ACGCAGCAAUAUUACGAAGC | -3.38 ± 0.24 | -1.6 ± 0.28 |
| ACGCAGCAAUAUUACGAAGG | -2.61 ± 0.13 | -1.3 ± 0.14 |
| ACGCAGCAAUAUUACGAGAU | -3.32 ± 0.14 | -2.68 ± 0.18 |
| ACGCAGCAAUAUUACGAGUA | -3.72 ± 0.33 | -3.07 ± 0.27 |
| ACGCAGCAAUAUUACGAUGU | -2.13 ± 0.057 | -1.16 ± 0.078 |
| ACGCAGCAAUAUUACGCAUU | -3.81 ± 0.19 | -1.89 ± 0.12 |
| ACGCAGCAAUAUUACGCCGC | -3.68 ± 0.29 | -2.42 ± 0.25 |
| ACGCAGCAAUAUUACGCCUU | -0.484 ± 0.082 | 0.1 ± 0.095 |
| ACGCAGCAAUAUUACGCGAC | -2.01 ± 0.15 | -2.24 ± 0.21 |
| ACGCAGCAAUAUUACGCGUC | -4.42 ± 0.17 | -2.18 ± 0.14 |
| ACGCAGCAAUAUUACGCGUU | -3.56 ± 0.14 | -2.42 ± 0.18 |
| ACGCAGCAAUAUUACGCUUU | -1.69 ± 0.079 | -1.15 ± 0.11 |
| ACGCAGCAAUAUUACGGCGA | -0.895 ± 0.1 | -0.0901 ± 0.14 |
| ACGCAGCAAUAUUACGGGGC | -3.8 ± 0.24 | -3.15 ± 0.28 |
| ACGCAGCAAUAUUACGGUCG | -0.525 ± 0.055 | -0.355 ± 0.072 |
| ACGCAGCAAUAUUACGUCAA | -3.09 ± 0.2 | -2.57 ± 0.15 |
| ACGCAGCAAUAUUACGUCAG | -2.75 ± 0.12 | -3 ± 0.19 |
| ACGCAGCAAUAUUACGUCUC | -3.88 ± 0.13 | -0.606 ± 0.084 |

Source: the supplement of paper PMC7877785
